# From article PMC8421406, “C9orf72-derived arginine-rich poly-dipeptides impede phase modifiers” (Nature Communications, 2021)
# B1: MBP:PR18 (18 repeats of Pro-Arg) (peptide)
# chain: PRPRPRPRPRPRPRPRPRPRPRPRPRPRPRPRPRPR
# notes: proline:arginine poly-dipeptide from the C9orf72 repeat expansion; source: E. coli BL21(DE3), purified (amylose resin, cation exchange, gel filtration); not shown: MBP, N-terminal, kept
# B2: GFP:FUS-LC (green fluorescent protein fusion LC-domain of FUS, residue 2–214) (domain or fragment, UniProt P35637 2-214, looked up)
# chain: ASNDYTQQATQSYGAYPTQPGQGYSQQSSQPYGQQSYSGYSQSTDTSGYGQSSYSSYGQSQNTGYGTQSTPQGYGSTGGYGSSQSSQSSYGQQSSYPGYGQQPAPSSTSGSYGSSSQSSSYGQPQSGSYSQQPSYGGQQQSYGQQQSYNPPQGYGQQNQYNSSSGGGGGGGGGGNYGQDQSSMSSGGGSGGGYGNQDQSGGGGSGGYGQQDRG
# notes: fused in sarcoma (FUS), LC-domain, residue 2–214; Plasmid from the Steven L. McKnight Laboratory; source: E. coli BL21(DE3), purified (Ni-NTA Agarose); not shown: GFP, N-terminal, kept
# B3: GFP:FUS-LC:NLS (GFP:FUS-LC fusion FUS-NLS, 501–526) (domain or fragment, UniProt P35637 2-214, looked up)
# chain: ASNDYTQQATQSYGAYPTQPGQGYSQQSSQPYGQQSYSGYSQSTDTSGYGQSSYSSYGQSQNTGYGTQSTPQGYGSTGGYGSSQSSQSSYGQQSSYPGYGQQPAPSSTSGSYGSSSQSSSYGQPQSGSYSQQPSYGGQQQSYGQQQSYNPPQGYGQQNQYNSSSGGGGGGGGGGNYGQDQSSMSSGGGSGGGYGNQDQSGGGGSGGYGQQDRGGDRGGFGPGKMDSRGEHRQDRRERPY
# notes: fused in sarcoma (FUS), LC-domain, residue 2–214; fused in sarcoma (FUS), NLS, residue 501–526; Built with the In-Fusion HD Cloning Kit; also called FUS-LC fusion NLS; source: E. coli BL21(DE3), purified (Ni-NTA Agarose); not shown: GFP, N-terminal, kept
# Tests used:
# Conditions in all cases: both partners purified
# [1] = molecular target: T1, Kapβ2 (ΔLoop, residues 321–371 were replaced with GGSGGSGS linker) (UniProt Q92973-2 1-320; Q92973-2 372-890); experiment: ITC; 200 μM MBP:PR18 titrated into 20 μM Kapβ2 (ΔLoop) in the cell; 25 °C; 20 mM HEPES pH 7.4, 150 mM NaCl, 10% glycerol, 2 mM β-mercaptoethanol; 19 injections of 2 μL
# T1 construct: karyopherin-β2 (Kapβ2), the part before the loop, up to residue 320; linker that replaces residues 321–371; karyopherin-β2 (Kapβ2), the part after the loop, from residue 372; source: E. coli BL21(DE3), purified; not shown: GST, N-terminal, cleaved
# T1 chain: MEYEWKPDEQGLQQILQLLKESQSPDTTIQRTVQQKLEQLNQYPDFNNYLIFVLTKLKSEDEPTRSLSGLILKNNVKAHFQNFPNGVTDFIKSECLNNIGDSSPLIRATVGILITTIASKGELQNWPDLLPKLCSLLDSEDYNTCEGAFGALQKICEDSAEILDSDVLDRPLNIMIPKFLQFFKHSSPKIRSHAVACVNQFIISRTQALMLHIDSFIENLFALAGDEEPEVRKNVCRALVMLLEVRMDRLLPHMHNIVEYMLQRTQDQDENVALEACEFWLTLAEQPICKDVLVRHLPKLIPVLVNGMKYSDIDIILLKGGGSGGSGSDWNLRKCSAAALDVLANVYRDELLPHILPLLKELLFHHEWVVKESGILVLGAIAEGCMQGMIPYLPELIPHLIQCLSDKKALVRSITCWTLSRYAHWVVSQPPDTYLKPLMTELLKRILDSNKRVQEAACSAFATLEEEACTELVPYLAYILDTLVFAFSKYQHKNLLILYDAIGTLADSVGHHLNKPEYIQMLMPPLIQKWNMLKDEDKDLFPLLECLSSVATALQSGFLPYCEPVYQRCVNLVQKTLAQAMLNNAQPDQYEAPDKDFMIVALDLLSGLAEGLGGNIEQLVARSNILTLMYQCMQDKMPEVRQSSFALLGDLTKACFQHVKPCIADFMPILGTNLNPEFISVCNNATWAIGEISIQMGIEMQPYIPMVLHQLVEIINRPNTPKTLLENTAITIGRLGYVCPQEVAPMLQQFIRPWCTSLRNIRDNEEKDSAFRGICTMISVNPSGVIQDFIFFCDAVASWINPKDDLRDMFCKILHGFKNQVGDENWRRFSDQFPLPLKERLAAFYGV
# karyopherin-β2 (Kapβ2) = molecular target: T2, karyopherin-β2 (Kapβ2) (UniProt Q92973 1-898, for NMR: [U-2H; Ile-δ1-13CH3; Leu, Val-13CH3/12CH3]-labeled); experiment: SEC-MALS; Superdex200 10/300 GL; 28 µM Kapβ2 injected in the absence and presence of 55 µM MBP:PR18; 20 mM HEPES pH 7.4, 150 mM NaCl, 2 mM MgCl2, 10% glycerol, 2 mM β-mercaptoethanol
# T2 construct: karyopherin-β2 (Kapβ2), nuclear import receptor; Expressed as GST fusion from pGEX6P-1; also called isotopically labeled Kapβ2; source: E. coli BL21(DE3), purified (GSH Sepharose, HRV3C cleavage, anion exchange, gel filtration); not shown: GST, N-terminal, cleaved
# T2 sequence (looked up): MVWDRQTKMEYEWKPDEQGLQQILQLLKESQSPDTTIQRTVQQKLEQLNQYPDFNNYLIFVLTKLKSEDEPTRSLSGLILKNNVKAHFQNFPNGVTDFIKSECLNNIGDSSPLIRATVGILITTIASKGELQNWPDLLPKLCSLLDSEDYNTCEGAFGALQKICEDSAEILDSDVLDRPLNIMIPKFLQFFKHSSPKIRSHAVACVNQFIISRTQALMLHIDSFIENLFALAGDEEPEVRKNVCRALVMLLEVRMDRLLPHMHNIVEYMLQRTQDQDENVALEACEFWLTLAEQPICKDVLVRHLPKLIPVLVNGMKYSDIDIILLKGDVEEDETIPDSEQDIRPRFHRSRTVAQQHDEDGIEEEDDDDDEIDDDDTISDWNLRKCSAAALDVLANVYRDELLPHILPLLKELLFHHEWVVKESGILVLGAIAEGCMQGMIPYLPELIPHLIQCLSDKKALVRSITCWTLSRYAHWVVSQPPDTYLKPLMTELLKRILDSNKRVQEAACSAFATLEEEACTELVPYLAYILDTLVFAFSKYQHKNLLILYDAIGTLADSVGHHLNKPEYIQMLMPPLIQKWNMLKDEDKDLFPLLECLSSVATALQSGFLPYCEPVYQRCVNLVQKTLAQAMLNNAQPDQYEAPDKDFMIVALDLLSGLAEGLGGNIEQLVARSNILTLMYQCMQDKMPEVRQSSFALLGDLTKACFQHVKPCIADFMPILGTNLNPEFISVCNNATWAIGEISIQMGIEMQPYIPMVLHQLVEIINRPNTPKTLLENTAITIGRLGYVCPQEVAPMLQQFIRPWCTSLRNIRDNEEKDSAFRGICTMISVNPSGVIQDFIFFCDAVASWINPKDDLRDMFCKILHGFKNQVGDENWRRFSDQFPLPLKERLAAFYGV
# [2] = molecular target: T3, mCh:FUS-LC (mCherry fusion LC-domain of FUS, residue 2–214), as hydrogel (UniProt P35637 2-214); experiment: hydrogel binding assay; 1 µM purified GFP-fused protein pipetted onto hydrogel droplets of the mCherry-fused LC-domain, overnight, confocal microscopy; ± Kapβ2 (0.1, 0.3, 1.0 µM) ± PR20; 20 mM Tris-HCl pH 7.5, 150 mM NaCl, 20 mM β-mercaptoethanol, 0.1 mM PMSF, 0.5 mM EDTA
# T3 construct: fused in sarcoma (FUS), LC-domain, residue 2–214; Polymerised in the hydrogel; plasmid from the Steven L. McKnight Laboratory; source: E. coli BL21(DE3), purified (Ni-NTA Agarose), prepared as hydrogel droplets; not shown: mCherry, N-terminal, kept
# T3 sequence (looked up): B2 chain
Binder,Kd [1] [nM],stoichiometry N (karyopherin-β2 (Kapβ2)),binding result [2]
B1,81.3,1,
B2,,,binds
B3,,,binds
